Measurements from the Immune Epitope Database (IEDB).
One block for each sequence: values may come before it.

What was measured:
HLA-A*26:01 [1] = experiment: IEDB peptide-MHC binding, purified MHC/competitive/radioactivity; filed as Kd, often an IC50 or EC50 that approximates it; ≥ and ≤ were set here for values at or beyond the usual limits of such assays; details: source organism: Dengue virus 3 Martinique/1243/1999
HLA-B*15:01 [2] = experiment: as above
HLA-A*01:01 = experiment: as above
HLA-A*30:02 = experiment: as above
HLA-B*40:01 = experiment: as above
HLA-B*44:02 = experiment: as above
HLA-B*15:01 [3] = experiment: IEDB peptide-MHC binding, purified MHC/competitive/fluorescence; filed as Kd, often an IC50 or EC50 that approximates it; ≥ and ≤ were set here for values at or beyond the usual limits of such assays
HLA-A*02:01 = experiment: IEDB peptide-MHC binding, purified MHC/competitive/fluorescence; ≥ and ≤ were set here for values at or beyond the usual limits of such assays
HLA-A*24:02 [4] = experiment: as above
HLA-B*35:01 = experiment: IEDB peptide-MHC binding, purified MHC/competitive/radioactivity; filed as Kd, often an IC50 or EC50 that approximates it; ≥ and ≤ were set here for values at or beyond the usual limits of such assays
HLA-B*51:01 = experiment: as above; details: source organism: Dengue virus 3 Martinique/1243/1999
HLA-A*26:01 [5] = experiment: IEDB peptide-MHC binding, purified MHC/direct/fluorescence; filed as Kd, often an IC50 or EC50 that approximates it; ≥ and ≤ were set here for values at or beyond the usual limits of such assays
HLA-B*39:01 = experiment: IEDB peptide-MHC binding, purified MHC/competitive/fluorescence; filed as Kd, often an IC50 or EC50 that approximates it; ≥ and ≤ were set here for values at or beyond the usual limits of such assays; details: source organism: Escherichia coli
HLA-A*29:02 = experiment: IEDB peptide-MHC binding, purified MHC/competitive/radioactivity; filed as Kd, often an IC50 or EC50 that approximates it; ≥ and ≤ were set here for values at or beyond the usual limits of such assays
HLA-A*30:01 = experiment: as above; details: source organism: Mammarenavirus juninense
HLA-A*32:01 = experiment: as above
HLA-A*24:02 [6] = experiment: as above; details: source organism: Dengue virus 2 Jamaica/1409/1983
HLA-B*44:03 = experiment: as above
[7] = source organism: Dengue virus 3 Martinique/1243/1999
[8] = source organism: Dengue virus 2 Peru/IQT2913/1996
[9] = source organism: Dengue virus 2 Jamaica/1409/1983
[10] = source organism: Vaccinia virus WR
[11] = source organism: Zaire ebolavirus
[12] = source organism: Dengue virus 4 Philippines/H241/1956
[13] = source organism: Dengue virus 3 Singapore/8120/1995
[14] = source organism: Mammarenavirus juninense
[15] = source organism: Dengue virus 3 Sri Lanka/1266/2000
[16] = source organism: Vaccinia virus

Sequence: HVTRGAVLTY
Kd (HLA-A*26:01 [1]): 0.114 µM | Kd (HLA-B*15:01 [2]; [7]): 0.094 µM

Sequence: FTMRHKKATY
Kd (HLA-A*01:01; [8]): 1.26 µM | Kd (HLA-A*30:02; [8]): ≥ 43.4 µM | Kd (HLA-B*15:01 [2]; [8]): 0.138 µM

Sequence: FEKQLGQVM
Kd (HLA-B*40:01; [9]): 0.527 µM | Kd (HLA-B*44:02; [9]): 0.319 µM

Sequence: SLKSLYEAF
Kd (HLA-B*15:01 [2]; [10]): 0.0203 µM

Sequence: KVSCSMLEF
Kd (HLA-B*15:01 [2]; source organism: Vaccinia virus Copenhagen): 0.00084 µM

Sequence: FIFNIIMSF
Kd (HLA-B*15:01 [2]; [10]): 0.399 µM

Sequence: FFQVIAKRY
Kd (HLA-B*15:01 [3]; source organism: Yersinia pestis Antiqua): ≥ 20 µM

Sequence: RTSFFLWVI
IC50 (HLA-A*02:01; [11]): 0.263 µM | IC50 (HLA-A*24:02 [4]; [11]): 0.0169 µM

Sequence: WHYDQDHPY
Kd (HLA-A*30:02; [9]): ≥ 39.3 µM | Kd (HLA-B*35:01; [9]): 7.59 µM

Sequence: MGLNYKLTF
Kd (HLA-B*15:01 [2]; [10]): 3.54 µM

Sequence: KVSIYKTHI
Kd (HLA-B*15:01 [2]; [10]): 1.46 µM

Sequence: EGIYIEGLM
IC50 (HLA-A*24:02 [4]; [11]): ≥ 154 µM

Sequence: IPLQWIASAI
Kd (HLA-B*51:01): 0.00748 µM

Sequence: CVLEAMAFL
Kd (HLA-A*26:01 [5]; source organism: Influenza A virus (A/chicken/Hebei/nj/2002(H9N2))): ≥ 20 µM

Sequence: MAVLFVVTL
Kd (HLA-B*35:01; [12]): 0.359 µM

Sequence: AKNISGQSP
IC50 (HLA-A*24:02 [4]; [11]): ≥ 552 µM

Sequence: IIIPFIAYF
Kd (HLA-B*15:01 [2]; [10]): 0.00159 µM

Sequence: VATTFITPM
Kd (HLA-B*35:01; [8]): 0.146 µM

Sequence: QLAMTDTTPF
Kd (HLA-B*15:01 [2]; [12]): 0.00234 µM

Sequence: LIVMDEAHF
Kd (HLA-B*15:01 [2]; [12]): 0.0309 µM

Sequence: SPTVEESRTI
Kd (HLA-B*51:01): 3.78 µM

Sequence: FGAQHSTTL
IC50 (HLA-A*24:02 [4]; source organism: Sudan ebolavirus): 60.5 µM

Sequence: LECSPRTGL
Kd (HLA-B*40:01; [7]): 0.599 µM

Kd (HLA-B*15:01 [3]; source organism: Escherichia coli): ≥ 20 µM | Kd (HLA-B*39:01): 0.268 µM
Sequence: RHSDTAKAF

Sequence: LANFLCLLM
Kd (HLA-B*15:01 [2]; [10]): 1.31 µM

Sequence: ECLPAAPDG
IC50 (HLA-A*24:02 [4]; [11]): ≥ 394 µM

Sequence: LEKASFIEV
Kd (HLA-B*40:01; [13]): 1.04 µM | Kd (HLA-B*44:02; [13]): 9.57 µM

Sequence: ELGNILSVY
Kd (HLA-A*26:01 [5]; [14]): 0.0165 µM | Kd (HLA-A*01:01; [14]): 16.5 µM | Kd (HLA-A*29:02; [14]): 11 µM | Kd (HLA-A*30:01): 11 µM | Kd (HLA-A*30:02; [14]): 0.00402 µM | Kd (HLA-A*32:01; [14]): ≥ 77.8 µM

Sequence: LAGPISQHNY
Kd (HLA-A*30:02; [15]): ≥ 60.3 µM | Kd (HLA-B*35:01; [15]): 0.187 µM

Sequence: LLHRCIYHY
Kd (HLA-B*15:01 [2]; [10]): 0.0429 µM

Sequence: SADSFLLML
IC50 (HLA-A*02:01; [11]): ≥ 613 µM | IC50 (HLA-A*24:02 [4]; [11]): ≥ 177 µM

Sequence: IDFLLQRWG
IC50 (HLA-A*02:01; [11]): ≥ 134 µM | IC50 (HLA-A*24:02 [4]; [11]): 68.4 µM

Sequence: QMAMTDTTPF
Kd (HLA-A*24:02 [6]): 3.56 µM | Kd (HLA-B*15:01 [2]; [9]): 0.00723 µM

Sequence: IPEPDRQRTP
Kd (HLA-B*35:01; source organism: Dengue virus 1 Brazil/97-11/1997): 0.0231 µM

Sequence: RIKQRGILGY
Kd (HLA-A*30:02; [9]): 0.0204 µM | Kd (HLA-B*15:01 [2]; [9]): 0.0466 µM

Sequence: REPVNATED
IC50 (HLA-A*02:01; [11]): ≥ 383 µM | IC50 (HLA-A*24:02 [4]; [11]): 12.7 µM

Sequence: GMMDGWYGF
Kd (HLA-B*15:01 [3]; source organism: Influenza A virus (A/Queensland/11/2001(H3N2))): 0.0219 µM

Sequence: KEISNMLSI
Kd (HLA-A*32:01; [7]): 6.37 µM | Kd (HLA-B*40:01; [7]): 0.00644 µM | Kd (HLA-B*44:02; [7]): 0.0282 µM | Kd (HLA-B*44:03; [7]): 0.0218 µM

Sequence: AETQHGTTV
Kd (HLA-B*40:01; [12]): 0.0208 µM | Kd (HLA-B*44:03; [12]): 1.46 µM

Kd (HLA-A*29:02; source organism: Homo sapiens): 0.108 µM | Kd (HLA-B*44:02; source organism: Homo sapiens): 0.005 µM | Kd (HLA-B*44:03; source organism: Homo sapiens): 0.0027 µM
Sequence: AELLNIPFLY

Sequence: ATNLEYKTL
IC50 (HLA-A*02:01; [16]): ≥ 85.8 µM | IC50 (HLA-A*24:02 [4]; [16]): 43.6 µM
